From patent US7148193B2, “Compounds that bind to growth hormone receptor” (Antyra, Inc., priority 1997, dated 2006)
Where a chain is given by its changes, count along the chain named.

What was measured:
[1] = molecular target: T1, rat growth hormone receptor (Rattus norvegicus, UniProt P16310); assay: Cell proliferation assay (WST-1) in FDC-1 cells stably transfected with rat growth hormone receptor; type: cell-based; settings: cells with 0.003 μM bovine GH, 18 h, at the concentrations tested
T1 construct: expressed in transfected cells; host or cells: FDC-1 cells
T1 sequence (P16310 19-638): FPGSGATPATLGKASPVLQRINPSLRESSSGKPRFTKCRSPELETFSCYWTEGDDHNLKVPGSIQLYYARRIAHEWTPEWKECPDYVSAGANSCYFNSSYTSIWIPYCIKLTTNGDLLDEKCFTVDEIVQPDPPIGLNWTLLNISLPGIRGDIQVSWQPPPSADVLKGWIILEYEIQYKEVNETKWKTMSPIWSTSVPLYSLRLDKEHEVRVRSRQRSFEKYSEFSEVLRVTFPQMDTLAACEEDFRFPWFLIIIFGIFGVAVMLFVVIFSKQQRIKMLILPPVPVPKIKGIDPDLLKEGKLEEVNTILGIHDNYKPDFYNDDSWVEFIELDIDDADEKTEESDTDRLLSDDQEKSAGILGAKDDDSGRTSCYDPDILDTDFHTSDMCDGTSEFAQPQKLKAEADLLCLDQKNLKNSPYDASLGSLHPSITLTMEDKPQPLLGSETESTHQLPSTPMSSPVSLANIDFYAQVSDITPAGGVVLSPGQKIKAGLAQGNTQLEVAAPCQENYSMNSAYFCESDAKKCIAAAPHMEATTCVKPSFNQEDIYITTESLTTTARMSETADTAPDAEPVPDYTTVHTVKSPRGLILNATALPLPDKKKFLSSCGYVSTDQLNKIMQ
Description: Cells transfected with rat GHR (50,000 cells per well) were incubated with either bovine GH, H5 peptide (SEQ ID NO:8), 447 peptide (SEQ ID NO:11) or control peptide (SEQ ID NO:10) for 18 h at 37° C. Experiments were done in triplicate. Background signal A450=0.15. […] Cells transfected with rat GHR (50,000 cells per well) containing […] bovine GH were incubated with either control peptide (SEQ ID NO:10), H5 peptide (SEQ ID NO:8) or 447 peptide (SEQ ID NO:11) for 18 h at 37° C. Proliferation was measured using WST-1 reagent. The “*” symbol corresponds to the A450 measurement for the cells incubated without GH.
Agonistic and antagonistic activities of the two peptides, H5WT (SEQ ID NO:8) and bP#447 ([…]), were tested in FDC-1 cells stably transfected with the gene encoding the rat growth hormone receptor. The resulting cell line required either IL-3 or GH for growth. The cells were grown in RPMI 1640 medium containing 10% FCS (fetal calf serum) and 20 units of IL-3 per ml. […] activity assays were performed in a total volume of 100 μl in 96 well plates (flat bottom). Cells were seeded at 50,000 cells/well in 50 μl RPMI 1640 (without IL-3) medium containing horse serum instead of FCS to reduce background. To duplicate wells, 50 μl of either growth hormone or peptides at different concentrations was added, followed by incubation for 18 h in a CO2 incubator. Assays to measure the antagonistic activity were performed in a total volume of 100 μl in 96 well plates. Either H5WT peptide (SEQ ID NO:8), bP#447 peptide (SEQ ID NO:11), or control peptide (SEQ ID NO:10) was added to cells containing 0.003 μM of bovine GH and incubated at 37° C. for 18 h in a CO2 incubator. Proliferation assays were performed using WST-1 reagent. The WST-1 tetrazolium salt (light red color) is cleaved to formazan (dark red color) by the succinate-tetrazolium reductase system, which is active only in viable cells. […] Ten microliters of WST-1 reagent was added and the plates incubated for 1–4 h 37° C. Proliferation was measured by absorbance at 450 nm.

[2] = molecular target: T2, rGHBP (Rattus norvegicus, UniProt P16310); assay: Species specificity of binding by ELISA and BIAcore, rGHBP; settings: in words
T2 construct: 1–48 of GHBP; The 3′ oligo used for this reaction encoded the mutation L43R (CTG→AGA); The second PCR reaction amplified the DNA encoding amino acids 38–260; 6xHis; made in house
T2 sequence (P16310 19-278 isoform P16310-2): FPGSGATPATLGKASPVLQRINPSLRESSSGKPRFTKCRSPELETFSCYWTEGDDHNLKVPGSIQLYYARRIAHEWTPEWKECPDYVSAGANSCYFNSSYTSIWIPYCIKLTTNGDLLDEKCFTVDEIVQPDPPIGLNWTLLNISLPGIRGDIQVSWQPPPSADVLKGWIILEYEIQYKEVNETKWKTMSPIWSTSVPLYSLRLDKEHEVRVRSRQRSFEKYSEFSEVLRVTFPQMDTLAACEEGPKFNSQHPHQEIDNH
Description: (§1) Wells were coated with either recombinant rGHBP or ‘hu’ GHBP (100 ng/well). Additions of H5 (SEQ ID NO:8) and H10 (SEQ ID NOS:9, 80, and 81) phage (10^10/well) and detection were made as described. […] Streptavidin chips were coated with H5 (SEQ ID NO:8) to 1100 RU as described and rGHBP or ‘hu’ GHBP (500 μg/ml) injected as 30 μl samples.
(§2) Growth hormone receptors from different species bind human GH as well as their own GH, however human GHR only binds human or monkey GH. […] The sequence of rGHBP was altered by PCR to create a “humanized” version (‘hu’ GHBP; FIG. 9A). Partially purified ‘hu’GHBP (FIG. 9B) was tested for binding using ELISA and BIAcore analysis. […] This was confirmed by BIAcore analysis (FIG. 10B).
(§3) The biotinylated control peptide (SEQ ID NO:10) was immobilized onto one flow cell of a SA-5 (streptavidin coated) sensor chip to a final density of 700 RU. On a second flow cell, either hGH (1100 RU final density), H5WT peptide (SEQ ID NO:8; 1100 RU final density), or bGH (730 RU final density) was immobilized. GHBP (either rat or humanized) was injected at a concentration of 500 μg/ml with a flow rate of 5 μl/min. Background binding to the control surface was subtracted prior to further analysis.

[3] = molecular target: T2, rGHBP; assay: Phage ELISA binding and competition on rGHBP coated wells; settings: for ELISA Competition, rGHBP, +BSA / ELISA Competition, rGHBP, +bGH / ELISA Competition, rGHBP, none: ELISA signal; for ELISA Competition, rGHBP, +BSA: BSA 1 μM; for ELISA Competition, rGHBP, none: no competitor; for clone binding blocked by GH: GH 1 μM, bovine GH on rat GHBP wells, huGH on ‘hu’ GHBP wells
Description: For analysis of individual clones, colonies were picked and phage prepared as described above. Microtiter wells were coated and blocked as described above. Wells were coated with either rGHBP or a control IgG MAb. Phage resuspended in MPBS were added to duplicate wells (100 μl/well) and incubated at room temperature for 1 hr. The phage solution was then removed, and the wells were washed three times with PBS at room temperature. Anti-M13 antibody conjugated to horseradish peroxidase (Pharmacia Biotech) was diluted 1:3000 in MPBS and added to each well (100 μl/well). Incubation was for another hour at room temperature, followed by PBS washes as described. Color was developed by addition of ABTS solution (100 μl/well; Boehringer). Color development was stopped by adjusting each well to 0.5% SDS. Plates were analyzed at 405 nm using a SpectraMax 340 plate reader (Molecular Devices) and SoftMax Pro software. Data points were averaged after subtraction of appropriate blanks. A clone was considered “positive” if the A405 of the well was >2-fold over background. […]
These clones were next analyzed for binding to the receptor's active sites (FIG. 2B). Competitions of phage binding were done both with the cognate ligand (i.e., GH) and with a specific target-neutralizing MAb 2C3 (Wang, B. S., et al. Mol. Cellular Endocrinology, vol. 116, p. 223–226, 1996).
(§4) Clones were tested for the presence of E-tag and binding to ‘hu’ GHBP, rGHBP, or BSA-coated wells. Those having specific GHBP binding (i.e., at least 2 fold greater binding to the GHBP than BSA) and with an E-tag positive signal were subjected to DNA sequencing. Three different clones were isolated and tested a second time against GHBP plus and minus GH (1 μM) or BSA (1 μM) coated wells as described. In these tests, huGH was used as competitor with ‘hu’ GHBP coated wells and bovineGH was used as a competitor with rat GHBP coated wells. […] The following open reading frame insertion including the DYKD (SEQ ID NO:79) amino terminal tag and up to the C-terminal E-tag was obtained for these clones; and is shown in Table III: […]

[4] = molecular target: T3, ‘hu’ GHBP (Rattus norvegicus, UniProt P16310, L61R); assay: Species specificity of binding by ELISA and BIAcore, 'hu' GHBP; settings: in words
T3 construct: 1–48 of GHBP; The 3′ oligo used for this reaction encoded the mutation L43R (CTG→AGA); The second PCR reaction amplified the DNA encoding amino acids 38–260; 6xHis; made in house
T3 sequence (P16310 19-278 isoform P16310-2 L61R): T2 sequence (P16310 19-278 isoform P16310-2) with L43R
Description: as §1, §2, §3

[5] = molecular target: T4, ‘hu’ GHBP (humanized rat GHBP) (Rattus norvegicus, UniProt P16310, L61R); assay: Phage ELISA binding and competition on 'hu' GHBP coated wells; settings: ELISA signal; for ELISA Competition, ‘hu’GHBP, +BSA: BSA 1 μM; for ELISA Competition, ‘hu’GHBP, +hGH: huGH 1 μM as competitor; for ELISA Competition, ‘hu’GHBP, none: no competitor
T4 construct: 1–48 of GHBP; The 3′ oligo used for this reaction encoded the mutation L43R (CTG→AGA); The second PCR reaction amplified the DNA encoding amino acids 38–260; 6xHis; made in house
T4 sequence (P16310 19-278 isoform P16310-2 L61R): T2 sequence (P16310 19-278 isoform P16310-2) with L43R
Description: For analysis of individual clones, colonies were picked and phage prepared as described above. Microtiter wells were coated and blocked as described above. Wells were coated with either rGHBP or a control IgG MAb. Phage resuspended in MPBS were added to duplicate wells (100 μl/well) and incubated at room temperature for 1 hr. The phage solution was then removed, and the wells were washed three times with PBS at room temperature. Anti-M13 antibody conjugated to horseradish peroxidase (Pharmacia Biotech) was diluted 1:3000 in MPBS and added to each well (100 μl/well). Incubation was for another hour at room temperature, followed by PBS washes as described. Color was developed by addition of ABTS solution (100 μl/well; Boehringer). Color development was stopped by adjusting each well to 0.5% SDS. Plates were analyzed at 405 nm using a SpectraMax 340 plate reader (Molecular Devices) and SoftMax Pro software. Data points were averaged after subtraction of appropriate blanks. A clone was considered “positive” if the A405 of the well was >2-fold over background.
Humanized GHBP (‘hu’ GHBP) contained the single amino acid change of rat GHBP amino acids L43 to R43, and was capable of binding human GH, as shown in FIG. 9. Direct immobilization of ‘hu’ GHBP was done as described earlier for panning of the secondary H5 library against rat GHBP and used inputs of ‘hu’ GHBP, prepared as described earlier of 100 μl per well of […] protein. Panning was performed with or without H10 peptide (SEQ ID NO:9; 30 μM) for 4 rounds, and 96 clones were picked.
as §4

Substance: Control peptide: SEQ ID NO:10, contains same amino acids as H5 in randomized order (DYKDWCLTLQPLVWASGGGYCA; control peptide) [reference compound]
- antagonistic activity [1]: no antagonistic activity

Substance: DYKDAQWWTTlGSNMFVLPGLRGCTFLPPMQCDREIRVFLVVVH (DYKDAQWWTTIGSNMFVLPGLRGCTFLPPMQCDREIRVFLVVVH; phage displayed; clone 13 peptide) [compound 13]
- binding to rGHBP [2]: bind to both forms of GHBP
- binding to rGHBP ([2]; listed as clone 13): bound to both human and rat forms of GHBP
- ELISA Competition, rGHBP, +BSA ([3]; phage concentrated 15×): 1.98
- ELISA Competition, rGHBP, +bGH ([3]; bovine GH 1 μM, phage concentrated 15×): 0.29
- ELISA Competition, rGHBP, none ([3]; phage concentrated 15×): 2.01
- clone binding blocked by GH [3]: blocked by GH
- binding to ‘hu’ GHBP [4]: bind to both forms of GHBP
- binding to ‘hu’ GHBP ([4]; listed as clone 13): bound to both human and rat forms of GHBP

Substance: H10: frame shifted phage clone without ORF, SEQ ID NOS:9, 80 and 81, binds rGHBP outside the active site (WLGCYFVAGVVACV; H10 peptide)
- binding to rGHBP [2]: bound to rGHBP
- ELISA Competition, ‘hu’GHBP, +BSA [5]: 0.29
- ELISA Competition, ‘hu’GHBP, +hGH [5]: 0.28
- ELISA Competition, ‘hu’GHBP, none [5]: 0.30
- ELISA Competition, rGHBP, +BSA [3]: 0.52
- ELISA Competition, rGHBP, +bGH ([3]; bovine GH 1 μM as competitor): 0.48
- ELISA Competition, rGHBP, none [3]: 0.52
- phage binding to rGHBP blocked by GH and MAb 2C3 ([3]; competition ELISA of phage binding): not blocked by either GH or MAb 2C3
- binding to ‘hu’ GHBP [4]: bound to rGHBP and ‘hu’ GHBP

Substance: DYKDALLHRSRCVRWGKWVCCLPPVGVGGAQANQGMSVQRFRHC (phage displayed; clone hh peptide)
- binding to rGHBP [2]: bind to both forms of GHBP
- ELISA Competition, ‘hu’GHBP, +BSA [5]: 0.37
- ELISA Competition, ‘hu’GHBP, +hGH [5]: 0.35
- ELISA Competition, ‘hu’GHBP, none [5]: 0.37
- ELISA Competition, rGHBP, +BSA [3]: 0.53
- ELISA Competition, rGHBP, +bGH ([3]; bovine GH 1 μM as competitor): 0.52
- ELISA Competition, rGHBP, none [3]: 0.55
- clone binding blocked by GH [3]: only clone 13 was blocked by GH
- binding to ‘hu’ GHBP [4]: bind to both forms of GHBP
